Data on ten sequences can be found in PMC12990809.

Common to all, as to experiment: pulldown
Data set [1] has as its target T1, PK21303.1 (Cannabis sativa) (UniProt A0A803NH45).
T1 sequence: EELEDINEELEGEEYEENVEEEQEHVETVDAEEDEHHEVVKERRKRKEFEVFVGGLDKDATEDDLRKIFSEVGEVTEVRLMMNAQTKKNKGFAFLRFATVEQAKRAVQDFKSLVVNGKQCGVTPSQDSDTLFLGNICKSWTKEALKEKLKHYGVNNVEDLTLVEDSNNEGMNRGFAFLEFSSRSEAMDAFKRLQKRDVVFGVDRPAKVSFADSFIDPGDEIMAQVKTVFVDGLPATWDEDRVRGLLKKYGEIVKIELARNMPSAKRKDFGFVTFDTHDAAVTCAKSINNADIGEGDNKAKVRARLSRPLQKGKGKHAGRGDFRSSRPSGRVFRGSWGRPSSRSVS
The note with it: 20 nM protein, 1.5 uM RNA pool; 20 mM HEPES pH 7.8, 70 mM KCl, 10 mM NaCl, 10% glycerol, 2 mM DTT, 0.1 ug/uL BSA; 30 min, 4 C.

For data set [2], the target named is T2, T07F10.3 (Caenorhabditis elegans) (UniProt Q22318).
T2 sequence: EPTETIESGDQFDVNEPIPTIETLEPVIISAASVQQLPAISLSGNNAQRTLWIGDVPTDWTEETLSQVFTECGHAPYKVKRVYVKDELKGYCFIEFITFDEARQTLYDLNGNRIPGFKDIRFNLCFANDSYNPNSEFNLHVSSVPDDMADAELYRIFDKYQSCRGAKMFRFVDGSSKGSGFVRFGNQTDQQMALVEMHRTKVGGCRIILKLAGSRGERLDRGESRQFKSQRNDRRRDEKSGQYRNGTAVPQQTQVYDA
The note with it: 20 nM protein, 1.5 uM RNA pool; 20 mM HEPES pH 7.8, 70 mM KCl, 10 mM NaCl, 10% glycerol, 2 mM DTT, 0.1 ug/uL BSA; 30 min, 4 C.

Data set [3] addresses ENSTNIG00000011257 (Tetraodon nigroviridis) (UniProt H3D110). The note with it: 20 nM protein, 1.5 uM RNA pool; 20 mM HEPES pH 7.8, 70 mM KCl, 10 mM NaCl, 10% glycerol, 2 mM DTT, 0.1 ug/uL BSA; 30 min, 4 C.
For data set [4], the target named is T3, Tb927.6.4960 Q72H;T102A;A103T (Trypanosoma brucei) (UniProt Q586G8).
T3 sequence: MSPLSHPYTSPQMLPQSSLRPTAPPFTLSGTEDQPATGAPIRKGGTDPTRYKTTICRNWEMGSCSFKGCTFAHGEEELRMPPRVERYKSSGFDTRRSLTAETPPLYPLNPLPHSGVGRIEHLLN
The note with it: 20 nM protein, 1.5 uM RNA pool; 20 mM HEPES pH 7.8, 70 mM KCl, 10 mM NaCl, 10% glycerol, 2 mM DTT, 0.1 ug/uL BSA; 30 min, 4 C.

For a further data set, the target named is T4, PUF60 (Homo sapiens) (UniProt Q9UHX1).
T4 sequence: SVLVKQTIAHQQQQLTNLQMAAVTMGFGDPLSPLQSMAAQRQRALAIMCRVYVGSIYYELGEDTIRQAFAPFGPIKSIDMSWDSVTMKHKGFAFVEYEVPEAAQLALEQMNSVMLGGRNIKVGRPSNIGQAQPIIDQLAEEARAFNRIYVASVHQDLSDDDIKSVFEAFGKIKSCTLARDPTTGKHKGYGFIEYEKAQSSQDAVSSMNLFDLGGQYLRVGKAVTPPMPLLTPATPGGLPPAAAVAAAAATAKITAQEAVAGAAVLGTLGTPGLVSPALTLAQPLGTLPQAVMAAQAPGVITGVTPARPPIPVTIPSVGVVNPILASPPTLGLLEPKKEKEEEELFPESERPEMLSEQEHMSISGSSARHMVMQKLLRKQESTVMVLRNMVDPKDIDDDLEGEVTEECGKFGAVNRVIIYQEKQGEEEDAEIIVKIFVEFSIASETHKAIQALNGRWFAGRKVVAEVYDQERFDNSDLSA
To be noted: 20 nM protein, 1.5 uM RNA pool; 20 mM HEPES pH 7.8, 70 mM KCl, 10 mM NaCl, 10% glycerol, 2 mM DTT, 0.1 ug/uL BSA; 30 min, 4 C.

The next data set addresses T5, FUBP1 (Homo sapiens) (UniProt A0ACI8RIE7).
T5 sequence: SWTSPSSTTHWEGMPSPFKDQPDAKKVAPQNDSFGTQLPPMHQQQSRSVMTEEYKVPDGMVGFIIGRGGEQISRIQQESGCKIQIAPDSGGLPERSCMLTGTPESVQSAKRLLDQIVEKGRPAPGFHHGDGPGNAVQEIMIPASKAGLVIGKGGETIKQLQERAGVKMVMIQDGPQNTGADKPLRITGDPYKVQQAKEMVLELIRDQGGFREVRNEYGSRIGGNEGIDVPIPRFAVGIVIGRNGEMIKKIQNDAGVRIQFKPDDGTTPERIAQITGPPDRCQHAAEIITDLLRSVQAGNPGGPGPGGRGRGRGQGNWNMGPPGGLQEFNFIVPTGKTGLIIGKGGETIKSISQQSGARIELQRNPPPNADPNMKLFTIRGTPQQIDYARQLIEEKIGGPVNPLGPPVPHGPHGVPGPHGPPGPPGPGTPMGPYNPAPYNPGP
The note with it: 20 nM protein, 1.5 uM RNA pool; 20 mM HEPES pH 7.8, 70 mM KCl, 10 mM NaCl, 10% glycerol, 2 mM DTT, 0.1 ug/uL BSA; 30 min, 4 C.

The target in data set [5] is u2af2b (Tetraodon nigroviridis) (UniProt H3CRP7). The note with it: 20 nM protein, 1.5 uM RNA pool; 20 mM HEPES pH 7.8, 70 mM KCl, 10 mM NaCl, 10% glycerol, 2 mM DTT, 0.1 ug/uL BSA; 30 min, 4 C.
The next data set has as its target T6, MBNL1 (Homo sapiens) (UniProt Q9NR56).
T6 sequence: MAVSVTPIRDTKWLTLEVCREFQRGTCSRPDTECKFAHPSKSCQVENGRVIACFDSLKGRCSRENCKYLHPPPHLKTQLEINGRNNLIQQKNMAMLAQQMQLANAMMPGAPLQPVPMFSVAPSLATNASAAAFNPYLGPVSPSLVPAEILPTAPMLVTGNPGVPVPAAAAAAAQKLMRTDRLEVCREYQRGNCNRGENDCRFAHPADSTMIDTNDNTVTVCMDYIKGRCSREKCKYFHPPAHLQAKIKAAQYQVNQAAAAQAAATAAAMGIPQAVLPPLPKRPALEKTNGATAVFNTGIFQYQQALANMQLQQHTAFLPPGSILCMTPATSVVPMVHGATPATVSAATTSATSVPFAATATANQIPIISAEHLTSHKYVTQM
The note with it: 20 nM protein, 1.5 uM RNA pool; 20 mM HEPES pH 7.8, 70 mM KCl, 10 mM NaCl, 10% glycerol, 2 mM DTT, 0.1 ug/uL BSA; 30 min, 4 C (protocol of this paper; not …); cited from earlier work.

The next data set concerns the target T7, tardbp (Danio rerio) (UniProt A0ACM8Q011).
T7 sequence: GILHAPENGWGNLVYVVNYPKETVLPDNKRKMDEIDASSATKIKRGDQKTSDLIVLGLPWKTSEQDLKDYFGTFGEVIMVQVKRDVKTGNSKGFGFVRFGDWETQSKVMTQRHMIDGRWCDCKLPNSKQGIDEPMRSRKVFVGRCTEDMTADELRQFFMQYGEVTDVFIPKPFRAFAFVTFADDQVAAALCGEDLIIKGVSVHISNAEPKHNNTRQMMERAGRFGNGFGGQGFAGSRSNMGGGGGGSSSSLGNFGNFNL
The note with it: 20 nM protein, 1.5 uM RNA pool; 20 mM HEPES pH 7.8, 70 mM KCl, 10 mM NaCl, 10% glycerol, 2 mM DTT, 0.1 ug/uL BSA; 30 min, 4 C.

Data set [6] addresses T8, PK21151.1 (Cannabis sativa) (UniProt A0A7J6F7E6).
T8 sequence: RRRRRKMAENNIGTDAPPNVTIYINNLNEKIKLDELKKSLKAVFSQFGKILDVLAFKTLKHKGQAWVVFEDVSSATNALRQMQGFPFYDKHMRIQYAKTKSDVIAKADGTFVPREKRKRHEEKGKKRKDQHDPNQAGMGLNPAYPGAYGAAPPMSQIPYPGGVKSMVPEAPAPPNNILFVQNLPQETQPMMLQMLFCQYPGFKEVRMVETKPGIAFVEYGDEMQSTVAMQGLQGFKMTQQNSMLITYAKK
The note with it: 20 nM protein, 1.5 uM RNA pool; 20 mM HEPES pH 7.8, 70 mM KCl, 10 mM NaCl, 10% glycerol, 2 mM DTT, 0.1 ug/uL BSA; 30 min, 4 C.

u2af2b (Tetraodon nigroviridis), sequence (H3CRP7 entry or part of it): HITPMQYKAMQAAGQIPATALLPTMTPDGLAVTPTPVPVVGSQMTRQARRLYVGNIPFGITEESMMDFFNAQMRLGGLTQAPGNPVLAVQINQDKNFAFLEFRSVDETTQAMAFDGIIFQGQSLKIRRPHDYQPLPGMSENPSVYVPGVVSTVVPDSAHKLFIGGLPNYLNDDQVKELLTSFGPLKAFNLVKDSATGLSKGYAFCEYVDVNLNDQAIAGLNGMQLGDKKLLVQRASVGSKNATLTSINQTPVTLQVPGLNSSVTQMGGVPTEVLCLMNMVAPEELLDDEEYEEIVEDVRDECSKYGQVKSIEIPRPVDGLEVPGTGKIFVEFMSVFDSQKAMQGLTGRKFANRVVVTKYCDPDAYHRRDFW
ENSTNIG00000011257 (Tetraodon nigroviridis), sequence (H3D110 entry or part of it): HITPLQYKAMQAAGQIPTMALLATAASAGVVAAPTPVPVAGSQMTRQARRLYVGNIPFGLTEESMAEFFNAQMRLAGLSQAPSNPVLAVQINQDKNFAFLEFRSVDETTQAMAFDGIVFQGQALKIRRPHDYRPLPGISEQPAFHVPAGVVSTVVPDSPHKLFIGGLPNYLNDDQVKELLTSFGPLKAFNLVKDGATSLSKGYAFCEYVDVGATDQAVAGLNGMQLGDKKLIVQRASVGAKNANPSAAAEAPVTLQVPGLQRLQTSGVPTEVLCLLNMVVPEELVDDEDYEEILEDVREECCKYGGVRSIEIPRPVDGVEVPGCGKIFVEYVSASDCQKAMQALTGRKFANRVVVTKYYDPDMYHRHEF

In turn, AGAAGGA [RNAcompete motif RNCMPT00831] registered a binding signal (z-score (mean of top ten 7-mers)) in data set [1] of 6.57.
In data set [2], AUAAUAA [RNAcompete motif RNCMPT00821] returned a binding signal (z-score (mean of top ten 7-mers)) of 8.08.
UUUUUU [RNAcompete motif RNCMPT01671] registered a binding signal (z-score (mean of top ten 7-mers)) in data set [3] of 12.3.
As for UAAUAA [RNAcompete motif RNCMPT00833], the binding signal (z-score (mean of top ten 7-mers)) in [4] is 13.9.
For UUUUUUU [RNAcompete motif RNCMPT00820], in the data set with PUF60 (Homo sapiens), the binding signal (z-score (mean of top ten 7-mers)) worked out at 12.
Take AUGUAU [RNAcompete motif RNCMPT00822]: in the data set with FUBP1 (Homo sapiens), the binding signal (z-score (mean of top ten 7-mers)) worked out at 7.78.
In data set [5], UUUUUCC [RNAcompete motif RNCMPT01670] gave a binding signal (z-score (mean of top ten 7-mers)) of 10.4.
Turning to GCUUGC [RNAcompete motif RNCMPT00038], the binding signal (z-score (mean of top ten 7-mers)) with MBNL1 (Homo sapiens) was 11.2.
In the case of UGAAUGA [RNAcompete motif RNCMPT01664], in the data set with tardbp (Danio rerio), the binding signal (z-score (mean of top ten 7-mers)) was 9.7.
As for UUGCACA [RNAcompete motif RNCMPT00830], the binding signal (z-score (mean of top ten 7-mers)) in [6] amounted to 12.4.
